Experimental data taken from patent publication US20150344570A1 (published 2015).

T1: FcγRIIb (human, UniProt P31994 43-217)
T1 construct: extracellular domain; also called FcgRIIb; 2b; not shown: His tag attached to the C terminus
T1 sequence (looked up): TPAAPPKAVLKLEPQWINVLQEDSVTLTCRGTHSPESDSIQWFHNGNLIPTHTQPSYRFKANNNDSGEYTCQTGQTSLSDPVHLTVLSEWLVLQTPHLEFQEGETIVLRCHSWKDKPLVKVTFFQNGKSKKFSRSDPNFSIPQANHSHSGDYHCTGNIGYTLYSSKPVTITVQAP

T2: FcγRIIa H (human, UniProt P12318 34-217)
T2 construct: extracellular domain; also called FcgRIIa H; 2aH; not shown: His tag attached to the C terminus
T2 sequence (looked up): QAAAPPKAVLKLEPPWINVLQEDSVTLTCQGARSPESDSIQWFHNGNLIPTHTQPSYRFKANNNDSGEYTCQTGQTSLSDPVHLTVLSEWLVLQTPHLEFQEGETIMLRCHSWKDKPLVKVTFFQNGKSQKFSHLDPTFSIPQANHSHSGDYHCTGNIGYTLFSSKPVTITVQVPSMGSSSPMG

T3: FcγRIIa H (human, UniProt P12318 34-217)
T3 construct: extracellular domain; also called FcgRIIa H; FcγRIIa type H
T3 sequence (looked up): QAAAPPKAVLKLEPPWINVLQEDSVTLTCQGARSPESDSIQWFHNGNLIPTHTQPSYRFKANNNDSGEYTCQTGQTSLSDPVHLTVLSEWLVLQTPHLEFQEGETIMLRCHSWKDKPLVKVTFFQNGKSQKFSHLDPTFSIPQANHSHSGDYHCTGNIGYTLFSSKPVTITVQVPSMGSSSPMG

T4: FcγRIIb (human, UniProt P31994 43-217)
T4 construct: extracellular domain; also called FcgRIIb; 2b
T4 sequence (looked up): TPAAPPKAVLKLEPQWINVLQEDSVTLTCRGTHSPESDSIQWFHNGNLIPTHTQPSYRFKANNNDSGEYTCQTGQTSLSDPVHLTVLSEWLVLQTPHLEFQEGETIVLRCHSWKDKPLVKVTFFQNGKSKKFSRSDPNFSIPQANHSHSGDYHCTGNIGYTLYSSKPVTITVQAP


What was measured:
FcγRIIb [1] = biological target: T1, FcγRIIb; experiment: SPR (Biacore), antibody captured on antigen peptide chip, FcγR as analyte; relative binding activity
Method: (§1) The heterodimerized antibodies He Abs in which one of the H chains was introduced with an alteration were assayed for their binding activities to each activating FcγR and inhibitory FcγR according to the method described in Example 4. […] The activating FcγRs in FIGS. 26, 27, 28, and 29 are FcγRIa, FcγRIIa (R), FcγRIIa (H), and FcγRIIIa, respectively.
(§2) Analysis of interaction between objective antibody and the FcγR was carried out using Biacore T100 (GE Healthcare). HBS-EP+ (GE Healthcare) was used as the running buffer, and the measurement temperature was set to 25° C. Chips produced by immobilizing the antigen peptide by the amine coupling method to a Series S Sencor Chip CM5 (GE Healthcare), or alternatively, chips produced by allowing preliminarily biotinylated antigen peptides to interact with and immobilize onto a Series S Sensor Chip SA (certified) (GE Healthcare) were used. Antibodies of interest were captured onto an antigen peptide-immobilized chip, and allowed to interact to each FcγR diluted with running buffer. To regenerate and repeatedly use the chip, the antibodies captured on the chip were washed off by reacting 10 mM glycine-HCl, pH 1.5.

FcγRIIa H [2] = biological target: T2, FcγRIIa H; experiment: as above
Method: as §1, §2

FcγRIIa H [3] = biological target: T2, FcγRIIa H; experiment: SPR; He/Con for FcγRIIa H divided by He/Con for FcγRIIb
FcγRIIa H [4] = biological target: T3, FcγRIIa H; experiment: SPR (Biacore); He/Con_2aH divided by He/Con_2b (FcγRIIa H over FcγRIIb)
FcγRIIb [5] = biological target: T4, FcγRIIb; experiment: SPR (Biacore), antibody captured, FcγR analyte; binding relative to GpH7-A5/GpH7-B3/GpL16-k0 = 100
FcγRIIa H [6] = biological target: T3, FcγRIIa H; experiment: as above

Row | Binder | He/Con_2b (FcγRIIb [1]) | He/Con_2aH (FcγRIIa H [2]) | He_2aH/2b (IIaH/IIb) (FcγRIIa H [3]) [ratio] | He_2aH/2b (IIaH/IIb) (FcγRIIa H [4]) [ratio] | He/Con_2b (FcγRIIb [5]) | He/Con_2aH (FcγRIIa H [6])
1 | GpH7-A5/GpH7-B3 variant S239_11K/GpL16-k0 (antibody, human IgG1, kappa, Heterodimerized anti-glypican-3 IgG1; mutation in one H chain only; also called He Ab) heavy 1: not shown heavy 2: not shown light: DIVMTQSPLSLPVTPGEPASISCQASESLVHSNRNTYLHWYLQKPGQSPQLLIYKVSNRFSGVPDRFSGSGSGTDFTLKISRVEAEDVGVYYCSQNTHVPPTFGQGTKVEIERTVAAPSVFIFPPSDEQLKSGTASVVCLLNNFYPREAKVQWKVDNALQSGNSQESVTEQDSKDSTYSLSSTLTLSKADYEKHKVYACEVTHQGLSSPVTKSFNRGEC | 24.7 % of GpH7-A5/GpH7-B3/GpL16-k0 (=100) | 48.1 % of GpH7-A5/GpH7-B3/GpL16-k0 (=100) | 1.94 |  |  | 
2 | GpH7-A5/GpH7-B3 variant G237_02A/GpL16-k0 (antibody, human IgG1, kappa, Heterodimerized antibody, alteration in one H chain only; also called He Ab G237A) heavy 1: not shown heavy 2: not shown light: DIVMTQSPLSLPVTPGEPASISCQASESLVHSNRNTYLHWYLQKPGQSPQLLIYKVSNRFSGVPDRFSGSGSGTDFTLKISRVEAEDVGVYYCSQNTHVPPTFGQGTKVEIERTVAAPSVFIFPPSDEQLKSGTASVVCLLNNFYPREAKVQWKVDNALQSGNSQESVTEQDSKDSTYSLSSTLTLSKADYEKHKVYACEVTHQGLSSPVTKSFNRGEC |  |  |  | 0.27 | 124 % of control | 34 % of control
3 | GpH7-A5/GpH7-B3 variant G237_03V/GpL16-k0 (antibody, human IgG1, kappa, Heterodimerized antibody, alteration in one H chain only; also called He Ab G237V) heavy 1: not shown heavy 2: not shown light: DIVMTQSPLSLPVTPGEPASISCQASESLVHSNRNTYLHWYLQKPGQSPQLLIYKVSNRFSGVPDRFSGSGSGTDFTLKISRVEAEDVGVYYCSQNTHVPPTFGQGTKVEIERTVAAPSVFIFPPSDEQLKSGTASVVCLLNNFYPREAKVQWKVDNALQSGNSQESVTEQDSKDSTYSLSSTLTLSKADYEKHKVYACEVTHQGLSSPVTKSFNRGEC |  |  |  | 0.64 | 61.4 % of control | 39.4 % of control
4 | GpH7-A5/GpH7-B3 variant G237_12R/GpL16-k0 (antibody, human IgG1, kappa, Heterodimerized antibody, alteration in one H chain only; also called He Ab G237R) heavy 1: not shown heavy 2: not shown light: DIVMTQSPLSLPVTPGEPASISCQASESLVHSNRNTYLHWYLQKPGQSPQLLIYKVSNRFSGVPDRFSGSGSGTDFTLKISRVEAEDVGVYYCSQNTHVPPTFGQGTKVEIERTVAAPSVFIFPPSDEQLKSGTASVVCLLNNFYPREAKVQWKVDNALQSGNSQESVTEQDSKDSTYSLSSTLTLSKADYEKHKVYACEVTHQGLSSPVTKSFNRGEC |  |  |  | 0.76 |  | 7.5 % of control
5 | GpH7-A5/GpH7-B3 variant G236_09D/GpL16-k0 (antibody, human IgG1, kappa, Heterodimerized antibody, alteration in one H chain only; also called He Ab G236D) heavy 1: not shown heavy 2: not shown light: DIVMTQSPLSLPVTPGEPASISCQASESLVHSNRNTYLHWYLQKPGQSPQLLIYKVSNRFSGVPDRFSGSGSGTDFTLKISRVEAEDVGVYYCSQNTHVPPTFGQGTKVEIERTVAAPSVFIFPPSDEQLKSGTASVVCLLNNFYPREAKVQWKVDNALQSGNSQESVTEQDSKDSTYSLSSTLTLSKADYEKHKVYACEVTHQGLSSPVTKSFNRGEC |  |  |  | 0.54 | 167 % of control | 89.8 % of control

Continued, values first:

Row | He/Con_2b (FcγRIIb [1]) | He/Con_2aH (FcγRIIa H [2]) | He_2aH/2b (IIaH/IIb) (FcγRIIa H [3]) [ratio] | He_2aH/2b (IIaH/IIb) (FcγRIIa H [4]) [ratio] | He/Con_2b (FcγRIIb [5]) | He/Con_2aH (FcγRIIa H [6]) | Binder
6 | 0.4 % of GpH7-A5/GpH7-B3/GpL16-k0 (=100) | 0.7 % of GpH7-A5/GpH7-B3/GpL16-k0 (=100) | 1.91 |  |  |  | GpH7-A5/GpH7-B3 variant V266_05P/GpL16-k0 (antibody, human IgG1, kappa, Heterodimerized anti-glypican-3 IgG1; mutation in one H chain only; also called He Ab) heavy 1: not shown heavy 2: not shown light: DIVMTQSPLSLPVTPGEPASISCQASESLVHSNRNTYLHWYLQKPGQSPQLLIYKVSNRFSGVPDRFSGSGSGTDFTLKISRVEAEDVGVYYCSQNTHVPPTFGQGTKVEIERTVAAPSVFIFPPSDEQLKSGTASVVCLLNNFYPREAKVQWKVDNALQSGNSQESVTEQDSKDSTYSLSSTLTLSKADYEKHKVYACEVTHQGLSSPVTKSFNRGEC
7 | 49.4 % of GpH7-A5/GpH7-B3/GpL16-k0 (=100) | 59.4 % of GpH7-A5/GpH7-B3/GpL16-k0 (=100) | 1.2 |  |  |  | GpH7-A5/GpH7-B3 variant S239_16H/GpL16-k0 (antibody, human IgG1, kappa, Heterodimerized anti-glypican-3 IgG1; mutation in one H chain only; also called He Ab) heavy 1: not shown heavy 2: not shown light: DIVMTQSPLSLPVTPGEPASISCQASESLVHSNRNTYLHWYLQKPGQSPQLLIYKVSNRFSGVPDRFSGSGSGTDFTLKISRVEAEDVGVYYCSQNTHVPPTFGQGTKVEIERTVAAPSVFIFPPSDEQLKSGTASVVCLLNNFYPREAKVQWKVDNALQSGNSQESVTEQDSKDSTYSLSSTLTLSKADYEKHKVYACEVTHQGLSSPVTKSFNRGEC
8 | 39.1 % of GpH7-A5/GpH7-B3/GpL16-k0 (=100) | 57.1 % of GpH7-A5/GpH7-B3/GpL16-k0 (=100) | 1.46 |  |  |  | GpH7-A5/GpH7-B3 variant S239_12R/GpL16-k0 (antibody, human IgG1, kappa, Heterodimerized anti-glypican-3 IgG1; mutation in one H chain only; also called He Ab) heavy 1: not shown heavy 2: not shown light: DIVMTQSPLSLPVTPGEPASISCQASESLVHSNRNTYLHWYLQKPGQSPQLLIYKVSNRFSGVPDRFSGSGSGTDFTLKISRVEAEDVGVYYCSQNTHVPPTFGQGTKVEIERTVAAPSVFIFPPSDEQLKSGTASVVCLLNNFYPREAKVQWKVDNALQSGNSQESVTEQDSKDSTYSLSSTLTLSKADYEKHKVYACEVTHQGLSSPVTKSFNRGEC
